Reference: patent US12104181B2, “Compositions and methods for treating viral infections targeting TRIM7” (THE BOARD OF REGENTS OF THE UNIVERSITY OF TEXAS SYSTEM, priority 2021, dated 2024)

B1: TRIM11: human RING type E3 ligase expressed from lentiviral vector (protein, UniProt Q96F44 1-468, looked up)
E3 ubiquitin-protein ligase …: MAAPDLSTNLQEEATCAICLDYFTDPVMTDCGHNFCRECIRRCWGQPEGPYACPECRELSPQRNLRPNRPLAKMAEMARRLHPPSPVPQGVCPAHREPLAAFCGDELRLLCAACERSGEHWAHRVRPLQDAAEDLKAKLEKSLEHLRKQMQDALLFQAQADETCVLWQKMVESQRQNVLGEFERLRRLLAEEEQQLLQRLEEEELEVLPRLREGAAHLGQQSAHLAELIAELEGRCQLPALGLLQDIKDALRRVQDVKLQPPEVVPMELRTVCRVPGLVETLRRFRGDVTLDPDTANPELILSEDRRSVQRGDLRQALPDSPERFDPGPCVLGQERFTSGRHYWEVEVGDRTSWALGVCRENVNRKEKGELSAGNGFWILVFLGSYYNSSERALAPLRDPPRRVGIFLDYEAGHLSFYSATDGSLLFIFPEIPFSGTLRPLFSPLSSSPTPMTICRPKGGSGDTLAPQ
B2: TRIM19: human RING type E3 ligase expressed from lentiviral vector (protein, UniProt P29590 1-882, looked up)
Protein PML: MEPAPARSPRPQQDPARPQEPTMPPPETPSEGRQPSPSPSPTERAPASEEEFQFLRCQQCQAEAKCPKLLPCLHTLCSGCLEASGMQCPICQAPWPLGADTPALDNVFFESLQRRLSVYRQIVDAQAVCTRCKESADFWCFECEQLLCAKCFEAHQWFLKHEARPLAELRNQSVREFLDGTRKTNNIFCSNPNHRTPTLTSIYCRGCSKPLCCSCALLDSSHSELKCDISAEIQQRQEELDAMTQALQEQDSAFGAVHAQMHAAVGQLGRARAETEELIRERVRQVVAHVRAQERELLEAVDARYQRDYEEMASRLGRLDAVLQRIRTGSALVQRMKCYASDQEVLDMHGFLRQALCRLRQEEPQSLQAAVRTDGFDEFKVRLQDLSSCITQGKDAAVSKKASPEAASTPRDPIDVDLPEEAERVKAQVQALGLAEAQPMAVVQSVPGAHPVPVYAFSIKGPSYGEDVSNTTTAQKRKCSQTQCPRKVIKMESEEGKEARLARSSPEQPRPSTSKAVSPPHLDGPPSPRSPVIGSEVFLPNSNHVASGAGEAEERVVVISSSEDSDAENSSSRELDDSSSESSDLQLEGPSTLRVLDENLADPQAEDRPLVFFDLKIDNETQKISQLAAVNRESKFRVVIQPEAFFSIYSKAVSLEVGLQHFLSFLSSMRRPILACYKLWGPGLPNFFRALEDINRLWEFQEAISGFLAALPLIRERVPGASSFKLKNLAQTYLARNMSERSAMAAVLAMRDLCRLLEVSPGPQLAQHVYPFSSLQCFASLQPLVQAAVLPRAEARLLALHNVSFMELLSAHRRDRQGGLKKYSRYLSLQTTTLPPAQPAFNLQALGTYFEGLLEGPALARAEGVSTPLAGRGLAERASQQS
B3: TRIM18: human RING type E3 ligase expressed from lentiviral vector (protein, UniProt O15344 1-667, looked up)
E3 ubiquitin-protein ligase …: METLESELTCPICLELFEDPLLLPCAHSLCFNCAHRILVSHCATNESVESITAFQCPTCRHVITLSQRGLDGLKRNVTLQNIIDRFQKASVSGPNSPSETRRERAFDANTMTSAEKVLCQFCDQDPAQDAVKTCVTCEVSYCDECLKATHPNKKPFTGHRLIEPIPDSHIRGLMCLEHEDEKVNMYCVTDDQLICALCKLVGRHRDHQVAALSERYDKLKQNLESNLTNLIKRNTELETLLAKLIQTCQHVEVNASRQEAKLTEECDLLIEIIQQRRQIIGTKIKEGKVMRLRKLAQQIANCKQCIERSASLISQAEHSLKENDHARFLQTAKNITERVSMATASSQVLIPEINLNDTFDTFALDFSREKKLLECLDYLTAPNPPTIREELCTASYDTITVHWTSDDEFSVVSYELQYTIFTGQANVVSLCNSADSWMIVPNIKQNHYTVHGLQSGTKYIFMVKAINQAGSRSSEPGKLKTNSQPFKLDPKSAHRKLKVSHDNLTVERDESSSKKSHTPERFTSQGSYGVAGNVFIDSGRHYWEVVISGSTWYAIGLAYKSAPKHEWIGKNSASWALCRCNNNWVVRHNSKEIPIEPAPHLRRVGILLDYDNGSIAFYDALNSIHLYTFDVAFAQPVCPTFTVWNKCLTIITGLPIPDHLDCTEQLP
modifications: lentiviral expression
notes: human RING type E3 ligase expressed from lentiviral vector
B4: TRIM14: human RING type E3 ligase expressed from lentiviral vector (protein, UniProt Q14142 1-442, looked up)
Tripartite motif-containing …: MAGAATGSRTPGRSELVEGCGWRCPEHGDRVAELFCRRCRRCVCALCPVLGAHRGHPVGLALEAAVHVQKLSQECLKQLAIKKQQHIDNITQIEDATEKLKANAESSKTWLKGKFTELRLLLDEEEALAKKFIDKNTQLTLQVYREQADSCREQLDIMNDLSNRVWSISQEPDPVQRLQAYTATEQEMQQQMSLGELCHPVPLSFEPVKSFFKGLVEAVESTLQTPLDIRLKESINCQLSDPSSTKPGTLLKTSPSPERSLLLKYARTPTLDPDTMHARLRLSADRLTVRCGLLGSLGPVPVLRFDALWQVLARDCFATGRHYWEVDVQEAGAGWWVGAAYASLRRRGASAAARLGCNRQSWCLKRYDLEYWAFHDGQRSRLRPRDDLDRLGVFLDYEAGVLAFYDVTGGMSHLHTFRATFQEPLYPALRLWEGAISIPRLP
B5: TRIM15: human RING type E3 ligase expressed from lentiviral vector (protein, UniProt Q9C019 1-465, looked up)
E3 ubiquitin-protein ligase …: MPATPSLKVVHELPACTLCAGPLEDAVTIPCGHTFCRLCLPALSQMGAQSSGKILLCPLCQEEEQAETPMAPVPLGPLGETYCEEHGEKIYFFCENDAEFLCVFCREGPTHQAHTVGFLDEAIQPYRDRLRSRLEALSTERDEIEDVKCQEDQKLQVLLTQIESKKHQVETAFERLQQELEQQRCLLLARLRELEQQIWKERDEYITKVSEEVTRLGAQVKELEEKCQQPASELLQDVRVNQSRCEMKTFVSPEAISPDLVKKIRDFHRKILTLPEMMRMFSENLAHHLEIDSGVITLDPQTASRSLVLSEDRKSVRYTRQKKSLPDSPLRFDGLPAVLGFPGFSSGRHRWQVDLQLGDGGGCTVGVAGEGVRRKGEMGLSAEDGVWAVIISHQQCWASTSPGTDLPLSEIPRGVRVALDYEAGQVTLHNAQTQEPIFTFTASFSGKVFPFFAVWKKGSCLTLKG
modifications: lentiviral expression
notes: as for B3
B6: TRIM13: human RING type E3 ligase expressed from lentiviral vector (protein, UniProt O60858 1-407, looked up)
E3 ubiquitin-protein ligase …: MELLEEDLTCPICCSLFDDPRVLPCSHNFCKKCLEGILEGSVRNSLWRPAPFKCPTCRKETSATGINSLQVNYSLKGIVEKYNKIKISPKMPVCKGHLGQPLNIFCLTDMQLICGICATRGEHTKHVFCSIEDAYAQERDAFESLFQSFETWRRGDALSRLDTLETSKRKSLQLLTKDSDKVKEFFEKLQHTLDQKKNEILSDFETMKLAVMQAYDPEINKLNTILQEQRMAFNIAEAFKDVSEPIVFLQQMQEFREKIKVIKETPLPPSNLPASPLMKNFDTSQWEDIKLVDVDKLSLPQDTGTFISKIPWSFYKLFLLILLLGLVIVFGPTMFLEWSLFDDLATWKGCLSNFSSYLTKTADFIEQSVFYWEQVTDGFFIFNERFKNFTLVVLNNVAEFVCKYKLL
modifications: lentiviral expression
notes: as for B3
B7: RLIM: human RING type E3 ligase expressed from lentiviral vector (protein, UniProt Q9NVW2 1-624, looked up)
E3 ubiquitin-protein ligase …: MENSDSNDKGSGDQSAAQRRSQMDRLDREEAFYQFVNNLSEEDYRLMRDNNLLGTPGESTEEELLRRLQQIKEGPPPQNSDENRGGDSSDDVSNGDSIIDWLNSVRQTGNTTRSGQRGNQSWRAVSRTNPNSGDFRFSLEINVNRNNGSQNSENENEPSARRSSGENVENNSQRQVENPRSESTSARPSRSERNSTEALTEVPPTRGQRRARSRSPDHRRTRARAERSRSPLHPMSEIPRRSHHSISSQTFEHPLVNETEGSSRTRHHVTLRQQISGPELLSRGLFAASGTRNASQGAGSSDTAASGESTGSGQRPPTIVLDLQVRRVRPGEYRQRDSIASRTRSRSQTPNNTVTYESERGGFRRTFSRSERAGVRTYVSTIRIPIRRILNTGLSETTSVAIQTMLRQIMTGFGELSYFMYSDSDSEPTGSVSNRNMERAESRSGRGGSGGGSSSGSSSSSSSSSSSSSSSSSSSSPSSSSGGESSETSSDLFEGSNEGSSSSGSSGARREGRHRAPVTFDESGSLPFLSLAQFFLLNEDDDDQPRGLTKEQIDNLAMRSFGENDALKTCSVCITEYTEGNKLRKLPCSHEYHVHCIDRWLSENSTCPICRRAVLASGNRESVV
B8: TRIM17: human RING type E3 ligase expressed from lentiviral vector (protein, UniProt Q9Y577 1-477, looked up)
E3 ubiquitin-protein ligase …: MEAVELARKLQEEATCSICLDYFTDPVMTTCGHNFCRACIQLSWEKARGKKGRRKRKGSFPCPECREMSPQRNLLPNRLLTKVAEMAQQHPGLQKQDLCQEHHEPLKLFCQKDQSPICVVCRESREHRLHRVLPAEEAVQGYKLKLEEDMEYLREQITRTGNLQAREEQSLAEWQGKVKERRERIVLEFEKMNLYLVEEEQRLLQALETEEEETASRLRESVACLDRQGHSLELLLLQLEERSTQGPLQMLQDMKEPLSRKNNVSVQCPEVAPPTRPRTVCRVPGQIEVLRGFLEDVVPDATSAYPYLLLYESRQRRYLGSSPEGSGFCSKDRFVAYPCAVGQTAFSSGRHYWEVGMNITGDALWALGVCRDNVSRKDRVPKCPENGFWVVQLSKGTKYLSTFSALTPVMLMEPPSHMGIFLDFEAGEVSFYSVSDGSHLHTYSQATFPGPLQPFFCLGAPKSGQMVISTVTMWVKG
B9: TRIM20: human RING type E3 ligase expressed from lentiviral vector (protein, UniProt O15553 1-781, looked up)
Pyrin: MAKTPSDHLLSTLEELVPYDFEKFKFKLQNTSVQKEHSRIPRSQIQRARPVKMATLLVTYYGEEYAVQLTLQVLRAINQRLLAEELHRAAIQEYSTQENGTDDSAASSSLGENKPRSLKTPDHPEGNEGNGPRPYGGGAASLRCSQPEAGRGLSRKPLSKRREKASEGLDAQGKPRTRSPALPGGRSPGPCRALEGGQAEVRLRRNASSAGRLQGLAGGAPGQKECRPFEVYLPSGKMRPRSLEVTISTGEKAPANPEILLTLEEKTAANLDSATEPRARPTPDGGASADLKEGPGNPEHSVTGRPPDTAASPRCHAQEGDPVDGTCVRDSCSFPEAVSGHPQASGSRSPGCPRCQDSHERKSPGSLSPQPLPQCKRHLKQVQLLFCEDHDEPICLICSLSQEHQGHRVRPIEEVALEHKKKIQKQLEHLKKLRKSGEEQRSYGEEKAVSFLKQTEALKQRVQRKLEQVYYFLEQQEHFFVASLEDVGQMVGQIRKAYDTRVSQDIALLDALIGELEAKECQSEWELLQDIGDILHRAKTVPVPEKWTTPQEIKQKIQLLHQKSEFVEKSTKYFSETLRSEMEMFNVPELIGAQAHAVNVILDAETAYPNLIFSDDLKSVRLGNKWERLPDGPQRFDSCIIVLGSPSFLSGRRYWEVEVGDKTAWILGACKTSISRKGNMTLSPENGYWVVIMMKENEYQASSVPPTRLLIKEPPKRVGIFVDYRVGSISFYNVTARSHIYTFASCSFSGPLQPIFSPGTRDGGKNTAPLTICPVGGQGPD
modifications: lentiviral expression
notes: as for B3

System: coxsackievirus B3 (CVB3-GFP)
Format: cell-based
Conditions: HeLa cells, replicate R1; for Percent Infected R1: GFP-positive cells within RFP-positive gate

Row | Molecule | Percent Infected R1 [%] | Z score R1
1 | B1 | 58.2 | −0.387
2 | B2 | 60.8 | −0.354
3 | B3 | 71.6 | −0.216
4 | B4 | 70.6 | −0.229
5 | B5 | 66.8 | −0.277
6 | B6 | 53 | −0.453
7 | B7 | 82 | −0.08
8 | B8 | 75.9 | −0.162
9 | B9 | 78.8 | −0.125
